Data set [1] addresses ZIKV NS5, purified recombinant (UniProt A0A024B7W1). In words: co-immunoprecipitation (IP Myc) with purified proteins, western blot quantification. The conditions noted are these: parent: est. 1.0; read off a plot. On the technique in general: In western blotting, separated proteins are transferred to a membrane and probed.
Data set [2] concerns the target NS3F (full-length NS3) WT (Zika virus, UniProt A0A2D0WX26 1504-2119). Briefly: fluorescence polarization; 5 mM MgCl2, no ATP. The conditions noted are these: protein: recombinant; tags: His; Myc (anti-myc blot); label: Cy3 (printed before the 5' end); single strand.

As for “ZIKV full-length NS3 (NS3F, residues 2-617), purified recombinant N569A; E573A”, the ratio to parent in data set [1] stood at 0.16.
Regarding GCGUCUUUACGGUGCU (ssRNA) [Cy3-ssRNA 16-mer], in data set [2], the Kd was determined as 99 ± 7 nM.

What is called Kd is the concentration at which binding is half-saturated.
